# Test results published in paper PMC5026494.
# Tests used:
# Test in all cases: split reporter
# [1] = target: zipped β1–10 of ZipGFP with TEV cleavage sequence (E5-β1–10-K5), cleaved by co-expressed TEV protease
# [2] = target: zipped β1–10 of the ZipGFP caspase reporter (E5-β1–10-K5 with DEVD), cleaved upon apoptosis
# [3] = target: β1–10 part of ZipGFP with TEV cleavage sequence (E5-β1–10-K5), cleaved by TEV protease, purified
substance,measurement,setting,value
"zipped β11 of ZipGFP with TEV cleavage sequence (K5-β11-E5), cleaved by co-expressed TEV protease",fold increase of green fluorescence over the uncleaved reporter,[1],10 fold
"zipped β11 of the ZipGFP caspase reporter (K5-β11-E5 with DEVD), cleaved upon apoptosis",fold increase of green fluorescence (normalized to mCherry) upon apoptosis,[2],5 to 10 fold
"β11 part of ZipGFP with TEV cleavage sequence (K5-β11-E5), cleaved by TEV protease, purified",time to half-maximal fluorescence (T1/2) after mixing,[3],40 min
